According to IntAct's records for PubMed 29892012:

B1: Cell division cycle-associated 7-like protein (Homo sapiens), Q96GN5 (parent)
chain: MELATRYQIPKEVADIFNAPSDDEEFVGFRDDVPMETLSSEESCDSFDSLESGKQQDVRFHSKYFTEELRRIFIEDTDSETEDFAGFTQSDLNGKTNPEVMVVESDLSDDGKASLVSEEEEDEEEDKATPRRSRSRRSSIGLRVAFQFPTKKLANKPDKNSSSEQLFSSARLQNEKKTILERKKDCRQVIQREDSTSESEDDSRDESQESSDALLKRTMNIKENKAMLAQLLAELNSMPDFFPVRTPTSASRKKTVRRAFSEGQITRRMNPTRSARPPEKFALENFTVSAAKFAEEFYSFRRRKTIGGKCREYRRRHRISSFRPVEDITEEDLENVAITVRDKIYDKVLGNTCHQCRQKTIDTKTVCRNQGCCGVRGQFCGPCLRNRYGEDVRSALLDPDWVCPPCRGICNCSYCRKRDGRCATGILIHLAKFYGYDNVKEYLESLQKELVEDN
partner: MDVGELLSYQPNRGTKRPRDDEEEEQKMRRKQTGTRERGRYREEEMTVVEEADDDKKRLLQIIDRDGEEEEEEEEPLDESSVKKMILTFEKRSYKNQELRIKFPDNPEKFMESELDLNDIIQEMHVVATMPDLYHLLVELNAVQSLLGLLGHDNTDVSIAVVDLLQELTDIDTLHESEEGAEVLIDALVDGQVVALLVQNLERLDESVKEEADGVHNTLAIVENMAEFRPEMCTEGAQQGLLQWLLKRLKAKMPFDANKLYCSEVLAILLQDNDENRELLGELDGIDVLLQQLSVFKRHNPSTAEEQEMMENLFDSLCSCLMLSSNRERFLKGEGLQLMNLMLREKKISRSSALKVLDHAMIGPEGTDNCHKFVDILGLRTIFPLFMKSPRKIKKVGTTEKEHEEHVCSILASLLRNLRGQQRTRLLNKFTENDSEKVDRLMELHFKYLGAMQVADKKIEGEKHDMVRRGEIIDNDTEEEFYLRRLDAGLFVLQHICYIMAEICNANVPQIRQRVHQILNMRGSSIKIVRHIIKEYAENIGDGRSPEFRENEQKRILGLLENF
B2: E3 ubiquitin-protein ligase RNF31 (Homo sapiens), Q96EP0 (parent)
chain: MPGEEEERAFLVAREELASALRRDSGQAFSLEQLRPLLASSLPLAARYLQLDAARLVRCNAHGEPRNYLNTLSTALNILEKYGRNLLSPQRPRYWRGVKFNNPVFRSTVDAVQGGRDVLRLYGYTEEQPDGLSFPEGQEEPDEHQVATVTLEVLLLRTELSLLLQNTHPRQQALEQLLEDKVEDDMLQLSEFDPLLREIAPGPLTTPSVPGSTPGPCFLCGSAPGTLHCPSCKQALCPACDHLFHGHPSRAHHLRQTLPGVLQGTHLSPSLPASAQPRPQSTSLLALGDSSLSSPNPASAHLPWHCAACAMLNEPWAVLCVACDRPRGCKGLGLGTEGPQGTGGLEPDLARGRWACQSCTFENEAAAVLCSICERPRLAQPPSLVVDSRDAGICLQPLQQGDALLASAQSQVWYCIHCTFCNSSPGWVCVMCNRTSSPIPAQHAPRPYASSLEKGPPKPGPPRRLSAPLPSSCGDPEKQRQDKMREEGLQLVSMIREGEAAGACPEEIFSALQYSGTEVPLQWLRSELPYVLEMVAELAGQQDPGLGAFSCQEARRAWLDRHGNLDEAVEECVRTRRRKVQELQSLGFGPEEGSLQALFQHGGDVSRALTELQRQRLEPFRQRLWDSGPEPTPSWDGPDKQSLVRRLLAVYALPSWGRAELALSLLQETPRNYELGDVVEAVRHSQDRAFLRRLLAQECAVCGWALPHNRMQALTSCECTICPDCFRQHFTIALKEKHITDMVCPACGRPDLTDDTQLLSYFSTLDIQLRESLEPDAYALFHKKLTEGVLMRDPKFLWCAQCSFGFIYEREQLEATCPQCHQTFCVRCKRQWEEQHRGRSCEDFQNWKRMNDPEYQAQGLAMYLQENGIDCPKCKFSYALARGGCMHFHCTQCRHQFCSGCYNAFYAKNKCPEPNCRVKKSLHGHHPRDCLFYLRDWTALRLQKLLQDNNVMFNTEPPAGARAVPGGGCRVIEQKEVPNGLRDEACGKETPAGYAGLCQAHYKEYLVSLINAHSLDPATLYEVEELETATERYLHVRPQPLAGEDPPAYQARLLQKLTEEVPLGQSIPRRRK
partner: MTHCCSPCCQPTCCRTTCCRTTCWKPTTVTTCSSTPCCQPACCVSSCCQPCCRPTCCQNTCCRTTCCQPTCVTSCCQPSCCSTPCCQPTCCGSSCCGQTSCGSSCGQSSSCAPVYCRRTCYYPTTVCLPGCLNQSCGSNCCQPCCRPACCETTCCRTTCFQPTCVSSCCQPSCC
B3: Zyxin (Homo sapiens), Q15942 (parent)
chain: MAAPRPSPAISVSVSAPAFYAPQKKFGPVVAPKPKVNPFRPGDSEPPPAPGAQRAQMGRVGEIPPPPPEDFPLPPPPLAGDGDDAEGALGGAFPPPPPPIEESFPPAPLEEEIFPSPPPPPEEEGGPEAPIPPPPQPREKVSSIDLEIDSLSSLLDDMTKNDPFKARVSSGYVPPPVATPFSSKSSTKPAAGGTAPLPPWKSPSSSQPLPQVPAPAQSQTQFHVQPQPQPKPQVQLHVQSQTQPVSLANTQPRGPPASSPAPAPKFSPVTPKFTPVASKFSPGAPGGSGSQPNQKLGHPEALSAGTGSPQPPSFTYAQQREKPRVQEKQHPVPPPAQNQNQVRSPGAPGPLTLKEVEELEQLTQQLMQDMEHPQRQNVAVNELCGRCHQPLARAQPAVRALGQLFHIACFTCHQCAQQLQGQQFYSLEGAPYCEGCYTDTLEKCNTCGEPITDRMLRATGKAYHPHCFTCVVCARPLEGTSFIVDQANRPHCVPDYHKQYAPRCSVCSEPIMPEPGRDETVRVVALDKNFHMKCYKCEDCGKPLSIEADDNGCFPLDGHVLCRKCHTARAQT
partner: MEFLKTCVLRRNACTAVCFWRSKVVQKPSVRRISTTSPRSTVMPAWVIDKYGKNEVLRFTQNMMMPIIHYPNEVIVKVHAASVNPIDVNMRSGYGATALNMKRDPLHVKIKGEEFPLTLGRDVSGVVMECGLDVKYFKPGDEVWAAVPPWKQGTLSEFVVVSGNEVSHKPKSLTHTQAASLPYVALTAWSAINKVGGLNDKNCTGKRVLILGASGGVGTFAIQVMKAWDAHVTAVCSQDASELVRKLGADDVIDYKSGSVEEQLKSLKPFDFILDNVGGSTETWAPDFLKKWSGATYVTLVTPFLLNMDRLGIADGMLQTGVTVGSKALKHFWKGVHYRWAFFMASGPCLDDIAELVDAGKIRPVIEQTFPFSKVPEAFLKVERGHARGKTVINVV
B4: Ribosome assembly protein METTL17, mitochondrial (Homo sapiens), Q9H7H0 (parent)
chain: MAAALKCLLTLGRWCPGLGVAPQARALAALVPGVTQVDNKSGFLQKRPHRQHPGILKLPHVRLPQALANGAQLLLLGSAGPTMENQVQTLTSYLWSRHLPVEPEELQRRARHLEKKFLENPDLSQTEEKLRGAVLHALRKTTYHWQELSYTEGLSLVYMAARLDGGFAAVSRAFHEIRARNPAFQPQTLMDFGSGTGSVTWAAHSIWGQSLREYMCVDRSAAMLVLAEKLLKGGSESGEPYIPGVFFRQFLPVSPKVQFDVVVSAFSLSELPSKADRTEVVQTLWRKTGHFLVLVENGTKAGHSLLMDARDLVLKGKEKSPLDPRPGFVFAPCPHELPCPQLTNLACSFSQAYHPIPFSWNKKPKEEKFSMVILARGSPEEAHRWPRITQPVLKRPRHVHCHLCCPDGHMQHAVLTARRHGRDLYRCARVSSWGDLLPVLTPSAFPPSTAQDPSES
partner: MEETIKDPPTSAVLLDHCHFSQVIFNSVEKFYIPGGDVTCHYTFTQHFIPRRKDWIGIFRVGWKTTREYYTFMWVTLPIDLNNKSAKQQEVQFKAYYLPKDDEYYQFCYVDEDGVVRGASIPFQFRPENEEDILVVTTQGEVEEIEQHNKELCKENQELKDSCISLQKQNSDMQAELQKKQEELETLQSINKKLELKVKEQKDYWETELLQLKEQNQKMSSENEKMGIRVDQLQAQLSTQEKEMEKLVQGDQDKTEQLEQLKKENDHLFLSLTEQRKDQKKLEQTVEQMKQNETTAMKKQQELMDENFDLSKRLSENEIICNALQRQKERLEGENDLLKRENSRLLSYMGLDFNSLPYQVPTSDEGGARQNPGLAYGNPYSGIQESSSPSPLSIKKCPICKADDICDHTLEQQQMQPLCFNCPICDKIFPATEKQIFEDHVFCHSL
B5: Protein VAC14 homolog (Homo sapiens), Q08AM6 (parent)
chain: MNPEKDFAPLTPNIVRALNDKLYEKRKVAALEIEKLVREFVAQNNTVQIKHVIQTLSQEFALSQHPHSRKGGLIGLAACSIALGKDSGLYLKELIEPVLTCFNDADSRLRYYACEALYNIVKVARGAVLPHFNVLFDGLSKLAADPDPNVKSGSELLDRLLKDIVTESNKFDLVSFIPLLRERIYSNNQYARQFIISWILVLESVPDINLLDYLPEILDGLFQILGDNGKEIRKMCEVVLGEFLKEIKKNPSSVKFAEMANILVIHCQTTDDLIQLTAMCWMREFIQLAGRVMLPYSSGILTAVLPCLAYDDRKKSIKEVANVCNQSLMKLVTPEDDELDELRPGQRQAEPTPDDALPKQEGTASGGPDGSCDSSFSSGISVFTAASTERAPVTLHLDGIVQVLNCHLSDTAIGMMTRIAVLKWLYHLYIKTPRKMFRHTDSLFPILLQTLSDESDEVILKDLEVLAEIASSPAGQTDDPGPLDGPDLQASHSELQVPTPGRAGLLNTSGTKGLECSPSTPTMNSYFYKFMINLLKRFSSERKLLEVRGPFIIRQLCLLLNAENIFHSMADILLREEDLKFASTMVHALNTILLTSTELFQLRNQLKDLKTLESQNLFCCLYRSWCHNPVTTVSLCFLTQNYRHAYDLIQKFGDLEVTVDFLAEVDKLVQLIECPIFTYLRLQLLDVKNNPYLIKALYGLLMLLPQSSAFQLLSHRLQCVPNPELLQTEDSLKAAPKSQKADSPSIDYAELLQHFEKVQNKHLEVRHQRSGRGDHLDRRVVL
partner: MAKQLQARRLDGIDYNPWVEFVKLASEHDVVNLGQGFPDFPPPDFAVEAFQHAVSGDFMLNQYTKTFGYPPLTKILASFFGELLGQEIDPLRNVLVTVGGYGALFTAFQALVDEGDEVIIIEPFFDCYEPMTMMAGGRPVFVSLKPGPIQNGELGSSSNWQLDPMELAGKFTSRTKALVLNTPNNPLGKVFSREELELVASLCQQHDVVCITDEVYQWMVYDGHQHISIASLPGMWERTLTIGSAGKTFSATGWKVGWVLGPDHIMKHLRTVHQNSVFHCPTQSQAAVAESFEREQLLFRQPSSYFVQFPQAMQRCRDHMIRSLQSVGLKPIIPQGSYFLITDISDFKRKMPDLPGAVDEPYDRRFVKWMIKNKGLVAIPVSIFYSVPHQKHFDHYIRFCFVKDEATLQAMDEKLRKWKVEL

Variants of: B1
Conditions: with ctbl1_human CTNNBL1, Q8WYA6
For R268H, the “effect of a mutation on the interaction” value was “with no effect”.

Variants of: B2
Conditions: with kra92_human KRTAP9-2, Q9BYQ4
R646W was tested, and the “effect of a mutation on the interaction” value was “with no effect”.

Variants of: B3
Conditions: with rt4i1_human RTN4IP1, Q8WWV3
For R167G, the “effect of a mutation on the interaction” value was “with no effect”.

Variants of: B4
Conditions: with caco2_human CALCOCO2, Q13137
R212H was tested, and the “effect of a mutation on the interaction” value was “disrupting interaction strength”.

Variants of: B5
Conditions: with kat1_human KYAT1, Q16773
In the case of A127S, the “effect of a mutation on the interaction” value is reported as “with no effect”.
